Reference: patent US20090099029

Molecular target: T1, Bovine, dephosphorylated, Myelin Basic Protein (MBP), P02687
T1 chain: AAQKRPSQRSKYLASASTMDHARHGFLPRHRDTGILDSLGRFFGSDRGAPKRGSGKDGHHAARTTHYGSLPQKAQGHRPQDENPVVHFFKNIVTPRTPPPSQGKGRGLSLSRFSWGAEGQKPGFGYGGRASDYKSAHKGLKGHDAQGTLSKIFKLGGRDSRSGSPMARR

B1: BTK (protein)
chain: MAAVILESIFLKRSQQKKKTSPLNFKKRLFLLTVHKLSYYEYDFERGRRGSKKGSIDVEKITCVETVVPEKNPPPERQIPRRGEESSEMEQISIIERFPYPFQVVYDEGPLYVFSPTEELRKRWIHQLKNVIRYNSDLVQKYHPCFWIDGQYLCCSQTAKNAMGCQILENRNGSLKPGSSHRKTKKPLPPTPEEDQILKKPLPPEPAAAPVSTSELKKVVALYDYMPMNANDLQLRKGDEYFILEESNLPWWRARDKNGQEGYIPSNYVTEAEDSIEMYEWYSKHMTRSQAEQLLKQEGKEGGFIVRDSSKAGKYTVSVFAKSTGDPQGVIRHYVVCSTPQSQYYLAEKHLFSTIPELINYHQHNSAGLISRLKYPVSQQNKNAPSTAGLGYGSWEIDPKDLTFLKELGTGQFGVVKYGKWRGQYDVAIKMIKEGSMSEDEFIEEAKVMMNLSHEKLVQLYGVCTKQRPIFIITEYMANGCLLNYLREMRHRFQTQQLLEMCKDVCEAMEYLESKQFLHRDLAARNCLVNDQGVVKVSDFGLSRYVLDDEYTSSVGSKFPVRWSPPEVLMYSKFSSKSDIWAFGVLMWEIYSLGKMPYERFTNSETAEHIAQGLRLYRPHLASEKVYTIMYSCWHEKADERPTFKILLSNILDVMDEES
In the case of B1, the “MBP Kinase Activity” value is reported as “Strong”.

B2: CSK (protein)
chain: MSAIQAAWPSGTECIAKYNFHGTAEQDLPFCKGDVLTIVAVTKDPNWYKAKNKVGREGIIPANYVQKREGVKAGTKLSLMPWFHGKITREQAERLLYPPETGLFLVRESTNYPGDYTLCVSCDGKVEHYRIMYHASKLSIDEEVYFENLMQLVEHYTSDADGLCTRLIKPKVMEGTVAAQDEFYRSGWALNMKELKLLQTIGKGEFGDVMLGDYRGNKVAVKCIKNDATAQAFLAEASVMTQLRHSNLVQLLGVIVEEKGGLYIVTEYMAKGSLVDYLRSRGRSVLGGDCLLKFSLDVCEAMEYLEGNNFVHRDLAARNVLVSEDNVAKVSDFGLTKEASSTQDTGKLPVKWTAPEALREKKFSTKSDVWSFGILLWEIYSFGRVPYPRIPLKDVVPRVEKGYKMDAPDGCPPAVYEVMKNCWHLDAAMRPSFLQLREQLEHIKTHELHL
With B2 the “MBP Kinase Activity” value was “Negative”.

B3: FER (protein)
chain: KSGVVLLNPIPKDKKWILSHEDVILGELLGKGNFGEVYKGTLKDKTSVAVKTCKEDLPQELKIKFLQEAKILKQYDHPNIVKLIGVCTQRQPVYIIMELVSGGDFLTFLRRKKDELKLKQLVKFSLDAAAGMLYLESKNCIHRDLAARNCLVGENNVLKISDFGMSRQEDGGVYSSSGLKQIPIKWTAPEALNYGRYSSESDVWSFGILLWETFSLGVCPYPGMTNQQAREQVERGYRMSAPQHCPEDISKIMMKCWDYKPENRPKFSELQKELTIIKRKLT
With B3 the “MBP Kinase Activity” value was “Negative”.

B4: FES (protein)
chain: MGFSSELCSPQGHGVLQQMQEAELRLLEGMRKWMAQRVKSDREYAGLLHHMSLQDSGGQSRAISPDSPISQSWAEITSQTEGLSRLLRQHAEDLNSGPLSKLSLLIRERQQLRKTYSEQWQQLQQELTKTHSQDIEKLKSQYRALARDSAQAKRKYQEASKDKDRDKAKDKYVRSLWKLFAHHNRYVLGVRAAQLHHQHHHQLLLPGLLRSLQDLHEEMACILKEILQEYLEISSLVQDEVVAIHREMAAAAARIQPEAEYQGFLRQYGSAPDVPPCVTFDESLLEEGEPLEPGELQLNELTVESVQHTLTSVTDELAVATEMVFRRQEMVTQLQQELRNEEENTHPRERVQLLGKRQVLQEALQGLQVALCSQAKLQAQQELLQTKLEHLGPGEPPPVLLLQDDRHSTSSSEQEREGGRTPTLEILKSHISGIFRPKFSLPPPLQLIPEVQKPLHEQLWYHGAIPRAEVAELLVHSGDFLVRESQGKQEYVLSVLWDGLPRHFIIQSLDNLYRLEGEGFPSIPLLIDHLLSTQQPLTKKSGVVLHRAVPKDKWVLNHEDLVLGEQIGRGNFGEVFSGRLRADNTLVAVKSCRETLPPDLKAKFLQEARILKQYSHPNIVRLIGVCTQKQPIYIVMELVQGGDFLTFLRTEGARLRVKTLLQMVGDAAAGMEYLESKCCIHRDLAARNCLVTEKNVLKISDFGMSREEADGVYAASGGLRQVPVKWTAPEALNYGRYSSESDVWSFGILLWETFSLGASPYPNLSNQQTREFVEKGGRLPCPELCPDAVFRLMEQCWAYEPGQRPSFSTIYQELQSIRKRHR
With B4 the “MBP Kinase Activity” value was “Negative”.

B5: JAK3 (protein)
chain: ISSDYELLSDPTPGALAPRDGLWNGAQLYACQDPTIFEERHLKYISQLGKGNFGSVELCRYDPLGDNTGALVAVKQLQHSGPDQQRDFQREIQILKALHSDFIVKYRGVSYGPGRQSLRLVMEYLPSGCLRDFLQRHRARLDASRLLLYSSQICKGMEYLGSRRCVHRDLAARNILVESEAHVKIADFGLAKLLPLDKDYYVVREPGQSPIFWYAPESLSDNIFSRQSDVWSFGVVLYELFTYCDKSCSPSAEFLRMMGCERDVPALCRLLELLEEGQRLPAPPACPAEVHELMKLCWAPSPQDRPSFSALGPQLDMLWSGSRGCETHAFTAHPEGKHHSLSFS
For B5, the “MBP Kinase Activity” value was “Strong”.

B6: LYNA (protein)
chain: MGCIKSKGKDSLSDDGVDLKTQPVRNTERTIYVRDPTSNKQQRPVPESQLLPGQRFQTKDPEEQGDIVVALYPYDGIHPDDLSFKKGEKMKVLEEHGEWWKAKSLLTKKEGFIPSNYVAKLNTLETEEWFFKDITRKDAERQLLAPGNSAGAFLIRESETLKGSFSLSVRDFDPVHGDVIKHYKIRSLDNGGYYISPRITFPCISDMIKHYQKQADGLCRRLEKACISPKPQKPWDKDAWEIPRESIKLVKRLGAGQFGEVWMGYYNNSTKVAVKTLKPGTMSVQAFLEEANLMKTLQHDKLVRLYAVVTREEPIYIITEYMAKGSLLDFLKSDEGGKVLLPKLIDFSAQIAEGMAYIERKNYIHRDLRAANVLVSESLMCKIADFGLARVIEDNEYTAREGAKFPIKWTAPEAINFGCFTIKSDVWSFGILLYEIVTYGKIPYPGRTNADVMTALSQGYRMPRVENCPDELYDIMKMCWKEKAEERPTFDYLQSVLDDFYTATEGQYQQQP
With B6 the “MBP Kinase Activity” value was “Weak”.

B7: MATK(HYL) (protein)
chain: MQGHFPAERREGRPRRGTRGQQQLLVSPRFLRAWHPPPVSARMPTRRWAPGTQCITKCEHTRPKPGELAFRKGDVVTILEACENKSWYRVKHHTSGQEGLLAAGALREREALSADPKLSLMPWFHGKISGQEAVQQLQPPEDGLFLVRESARHPGDYVLCVSFGRDVIHYRVLHRDGHLTIDEAVFFCNLMDMVEHYSKDKGAICTKLVRPKRKHGTKSAEEELARAGWLLNLQHLTLGAQIGEGEFGAVLQGEYLGQKVAVKNIKCDVTAQAFLDETAVMTKMQHENLVRLLGVILHQGLYIVMEHVSKGNLVNFLRTRGRALVNTAQLLQFSLHVAEGMEYLESKKLVHRDLAARNILVSEDLVAKVSDFGLAKAERKGLDSSRLPVKWTAPEALKHGKFTSKSDVWSFGVLLWEVFSYGRAPYPKMSLKEVSEAVEKGYRMEPPEGCPGPVHVLMSSCWEAEPARRPPFRKLAEKLARELRSAGAPASVSGQDADGSTSPRSQEP
B7 was tested, and the “MBP Kinase Activity” value was “Negative”.

B8: PTK2(FAK) (protein)
chain: MAAAYLDPNLNHTPNSSTKTHLGTGMERSPGAMERVLKVFHYFESNSEPTTWASIIRHGDATDVRGIIQKIVDSHKVKHVACYGFRLSHLRSEEVHWLHVDMGVSSVREKYELAHPPEEWKYELRIRYLPKGFLNQFTEDKPTLNFFYQQVKSDYMLEIADQVDQEIALKLGCLEIRRSYWEMRGNALEKKSNYEVLEKDVGLKRFFPKSLLDSVKAKTLRKLIQQTFRQFANLNREESILKFFEILSPVYRFDKECFKCALGSSWIISVELAIGPEEGISYLTDKGCNPTHLADFTQVQTIQYSNSEDKDRKGMLQLKIAGAPEPLTVTAPSLTIAENMADLIDGYCRLVNGTSQSFIIRPQKEGERALPSIPKLANSEKQGMRTHAVSVSETDDYAEIIDEEDTYTMPSTRDYEIQRERIELGRCIGEGQFGDVHQGIYMSPENPALAVAIKTCKNCTSDSVREKFLQEALTMRQFDHPHIVKLIGVITENPVWIIMELCTLGELRSFLQVRKYSLDLASLILYAYQLSTALAYLESKRFVHRDIAARNVLVSSNDCVKLGDFGLSRYMEDSTYYKASKGKLPIKWMAPESINFRRFTSASDVWMFGVCMWEILMHGVKPFQGVKNNDVIGRIENGERLPMPPNCPPTLYSLMTKCWAYDPSRRPRFTELKAQLSTILEEEKAQQEERMRMESRRQATVSWDSGGSDEAPPKPSRPGYPSPRSSEGFYPSPQHMVQTNHYQVSGYPGSHGITAMAGSIYPGQASLLDQTDSWNHRPQEIAMWQPNVEDSTVLDLRGIGQVLPTHLMEERLIRQQQEMEEDQRWLEKEERFLKPDVRLSRGSIDREDGSLQGPIGNQHIYQPVGKPDPAAPPKKPPRPGAPGHLGSLASLSSPADSYNEGVKLQPQEISPPPTANLDRSNDKVYENVTGLVKAVIEMSSKIQPAPPEEYVPMVKEVGLALRTLLATVDETIPLLPASTHREIEMAQKLLNSDLGELINKMKLAQQYVMTSLQQEYKKQMLTAAHALAVDAKNLLDVIDQARLKMLGQTRPH
B8 was tested, and the “MBP Kinase Activity” value was “Negative”.

B9: EPHA1 (protein)
chain: RSRRAQRQRQQRQRDRATDVDREDKLWLKPYVDLQAYEDPAQGALDFTRELDPAWLMVDTVIGEGEFGEVYRGTLRLPSQDCKTVAIKTLKDTSPGGQWWNFLREATIMGQFSHPHILHLEGVVTKRKPIMIITEFMENGALDAFLREREDQLVPGQLVAMLQGIASGMNYLSNHNYVHRDLAARNILVNQNLCCKVSDFGLTRLLDDFDGTYETQGGKIPIRWTAPEAIAHRIFTTASDVWSFGIVMWEVLSFGDKPYGEMSNQEVMKSIEDGYRLPPPVDCPAPLYELMKNCWAYDRARRPHFQKLQAHLEQLLANPHSLRTIANFDPRMTLRLPSLSGSDGIPYRTVSEWLESIRMKRYILHFHSAGLDTMECVLELTAEDLTQMGITLPGHQKRILCSIQGFKD
For B9, the “MBP Kinase Activity” value was “Strong”.

B10: TEC (protein)
chain: MNFNTILEEILIKRSQQKKKTSPLNYKERLFVLTKSMLTYYEGRAEKKYRKGFIDVSKIKCVEIVKNDDGVIPCQNKYPFQVVHDANTLYIFAPSPQSRDLWVKKLKEEIKNNNNIMIKYHPKFWTDGSYQCCRQTEKLAPGCEKYNLFESSIRKALPPAPETKKRRPPPPIPLEEEDNSEEIVVAMYDFQAAEGHDLRLERGQEYLILEKNDVHWWRARDKYGNEGYIPSNYVTGKKSNNLDQYEWYCRNMNRSKAEQLLRSEDKEGGFMVRDSSQPGLYTVSLYTKFGGEGSSGFRHYHIKETTTSPKKYYLAEKHAFGSIPEIIEYHKHNAAGLVTRLRYPVSVKGKNAPTTAGFSYEKWEINPSELTFMRELGSGLFGVVRLGKWRAQYKVAIKAIREGAMCEEDFIEEAKVMMKLTHPKLVQLYGVCTQQKPIYIVTEFMERGCLLNFLRQRQGHFSRDVLLSMCQDVCEGMEYLERNSFIHRDLAARNCLVSEAGVVKVSDFGMARYVLDDQYTSSSGAKFPVKWCPPEVFNYSRFSSKSDVWSFGVLMWEVFTEGRMPFEKYTNYEVVTMVTRGHRLYQPKLASNYVYEVMLRCWQEKPEGRPSFEDLLRTIDELVECEETFGR
For B10, the “MBP Kinase Activity” value was “Negative”.
